Values quoted from earlier work as cited in article PMC6815250.

Target: RgpB pro-fragment pro-fragment (Porphyromonas gingivalis) (UniProt P95493)

Chain of RgpB (P95493 230-736): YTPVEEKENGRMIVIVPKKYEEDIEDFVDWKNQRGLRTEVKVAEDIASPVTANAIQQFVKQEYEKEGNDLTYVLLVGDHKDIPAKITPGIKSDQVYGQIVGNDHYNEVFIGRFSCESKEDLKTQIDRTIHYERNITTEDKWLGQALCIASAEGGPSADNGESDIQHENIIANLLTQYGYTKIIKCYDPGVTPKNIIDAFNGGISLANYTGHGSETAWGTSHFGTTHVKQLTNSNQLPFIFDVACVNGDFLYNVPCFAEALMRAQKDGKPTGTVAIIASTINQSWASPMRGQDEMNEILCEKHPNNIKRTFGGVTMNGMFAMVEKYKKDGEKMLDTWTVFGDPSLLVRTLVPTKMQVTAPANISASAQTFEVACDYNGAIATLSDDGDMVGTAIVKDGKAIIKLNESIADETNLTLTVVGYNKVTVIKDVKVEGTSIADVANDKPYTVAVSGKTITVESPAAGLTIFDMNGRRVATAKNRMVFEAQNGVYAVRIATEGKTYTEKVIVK

For RgpB (from UniProt P95493), the Ki is given as 6.3 nM.
